Legend:
fibronectin = fibronectin (UniProt P02751); assay: SPR; plasminogen or fibronectin immobilised on CM5 chips by amine coupling (600 RU); recombinant enolase proteins 0-4000 nM injected at 30 uL/min for 180 s, 20 °C, dissociation 1000 s; 10 mM HEPES, 150 mM NaCl, 3 mM EDTA, 0.05% surfactant P20; Biacore X100
plasminogen = assay: as above
[1] = target: Recombinant M. hyorhinis enolase K451L (Mycoplasma hyorhinis (strain HUB-1)) (UniProt P0DXB0)
[2] = target: Recombinant M. hyorhinis enolase K451L-K452L (Mycoplasma hyorhinis (strain HUB-1)) (UniProt P0DXB0)
[3] = target: Recombinant M. hyorhinis enolase K452L (Mycoplasma hyorhinis (strain HUB-1)) (UniProt P0DXB0)

fibronectin, sequence (P02751 32-2477): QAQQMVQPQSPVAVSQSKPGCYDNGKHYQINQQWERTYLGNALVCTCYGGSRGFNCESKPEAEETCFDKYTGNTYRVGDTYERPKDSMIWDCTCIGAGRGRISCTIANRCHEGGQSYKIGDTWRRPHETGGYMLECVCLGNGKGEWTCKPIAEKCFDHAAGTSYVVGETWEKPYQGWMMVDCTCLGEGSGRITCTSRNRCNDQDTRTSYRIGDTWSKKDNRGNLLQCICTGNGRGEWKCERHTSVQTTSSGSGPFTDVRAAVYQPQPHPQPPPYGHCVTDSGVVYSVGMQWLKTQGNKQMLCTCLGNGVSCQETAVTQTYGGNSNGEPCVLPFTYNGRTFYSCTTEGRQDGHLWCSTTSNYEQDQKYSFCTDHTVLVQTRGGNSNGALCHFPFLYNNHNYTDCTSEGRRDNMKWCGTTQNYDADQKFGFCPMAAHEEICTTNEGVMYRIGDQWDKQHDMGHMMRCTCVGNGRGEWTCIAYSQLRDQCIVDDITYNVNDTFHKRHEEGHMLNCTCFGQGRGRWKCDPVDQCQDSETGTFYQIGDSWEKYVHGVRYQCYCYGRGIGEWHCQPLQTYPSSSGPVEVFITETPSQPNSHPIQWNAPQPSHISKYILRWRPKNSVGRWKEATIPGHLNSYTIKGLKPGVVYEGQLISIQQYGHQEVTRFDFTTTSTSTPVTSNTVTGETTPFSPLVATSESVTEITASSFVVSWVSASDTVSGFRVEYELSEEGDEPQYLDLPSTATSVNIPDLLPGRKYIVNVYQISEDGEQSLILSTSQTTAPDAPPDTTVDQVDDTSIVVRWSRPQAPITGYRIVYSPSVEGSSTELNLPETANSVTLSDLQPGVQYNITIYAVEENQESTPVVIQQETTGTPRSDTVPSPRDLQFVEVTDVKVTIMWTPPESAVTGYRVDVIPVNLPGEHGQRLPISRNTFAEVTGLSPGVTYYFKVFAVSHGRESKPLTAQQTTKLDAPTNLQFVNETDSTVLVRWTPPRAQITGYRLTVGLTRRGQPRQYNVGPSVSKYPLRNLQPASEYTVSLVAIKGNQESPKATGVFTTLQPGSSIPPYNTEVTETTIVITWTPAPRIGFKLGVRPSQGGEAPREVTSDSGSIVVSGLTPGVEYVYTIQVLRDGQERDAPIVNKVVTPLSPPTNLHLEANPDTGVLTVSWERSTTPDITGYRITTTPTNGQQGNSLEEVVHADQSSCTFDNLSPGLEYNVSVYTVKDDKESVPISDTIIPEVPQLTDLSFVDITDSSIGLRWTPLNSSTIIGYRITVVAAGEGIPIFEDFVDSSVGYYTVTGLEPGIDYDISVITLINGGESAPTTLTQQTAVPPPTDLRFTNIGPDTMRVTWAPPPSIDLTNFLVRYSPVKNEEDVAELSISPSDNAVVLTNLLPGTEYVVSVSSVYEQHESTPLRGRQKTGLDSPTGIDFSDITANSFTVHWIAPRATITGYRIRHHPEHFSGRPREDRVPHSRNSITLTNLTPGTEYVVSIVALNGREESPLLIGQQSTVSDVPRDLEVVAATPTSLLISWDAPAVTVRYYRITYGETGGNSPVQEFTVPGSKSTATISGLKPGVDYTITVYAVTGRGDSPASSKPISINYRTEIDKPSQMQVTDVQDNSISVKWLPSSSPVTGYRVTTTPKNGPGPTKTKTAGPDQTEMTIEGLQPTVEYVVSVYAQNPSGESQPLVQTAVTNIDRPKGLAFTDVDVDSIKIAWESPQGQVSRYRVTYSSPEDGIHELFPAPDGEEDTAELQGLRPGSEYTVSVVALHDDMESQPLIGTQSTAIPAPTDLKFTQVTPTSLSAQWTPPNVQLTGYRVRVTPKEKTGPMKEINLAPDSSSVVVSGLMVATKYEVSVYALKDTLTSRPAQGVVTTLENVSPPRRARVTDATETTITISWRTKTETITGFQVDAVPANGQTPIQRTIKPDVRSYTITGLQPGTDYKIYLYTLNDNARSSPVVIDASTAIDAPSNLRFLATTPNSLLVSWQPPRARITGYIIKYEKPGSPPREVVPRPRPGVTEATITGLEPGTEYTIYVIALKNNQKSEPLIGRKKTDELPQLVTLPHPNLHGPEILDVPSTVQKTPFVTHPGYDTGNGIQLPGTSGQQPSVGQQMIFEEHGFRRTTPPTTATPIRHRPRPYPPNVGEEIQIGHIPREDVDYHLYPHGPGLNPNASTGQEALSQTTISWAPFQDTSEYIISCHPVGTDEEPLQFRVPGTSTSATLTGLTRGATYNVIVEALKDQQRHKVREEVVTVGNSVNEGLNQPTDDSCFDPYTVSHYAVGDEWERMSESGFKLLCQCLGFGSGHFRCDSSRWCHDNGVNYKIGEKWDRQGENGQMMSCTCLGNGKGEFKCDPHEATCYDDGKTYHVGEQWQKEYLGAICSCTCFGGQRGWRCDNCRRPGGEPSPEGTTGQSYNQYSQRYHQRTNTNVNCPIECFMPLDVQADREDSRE

Substance	Kd (fibronectin)	Kd (plasminogen)	plasmin activity (OD 405 nm) of plasminogen held in wells coated with the mutant, after tPA, compared with WT rEno-bound plasminogen (printed percent, seemingly the decrease) [1]	plasmin activity (OD 405 nm) of plasminogen held in wells coated with the mutant, after tPA, compared with WT rEno-bound plasminogen (printed percent, seemingly the decrease) [2]	plasmin activity (OD 405 nm) of plasminogen held in wells coated with the mutant, after tPA, compared with WT rEno-bound plasminogen (printed percent, seemingly the decrease) [3]
Recombinant M. hyorhinis enolase, wild-type (from UniProt P0DXB0 1-450) (enzyme; other documents disagree on this pair)	0.0143 µM	–	–	–	–
Recombinant M. hyorhinis enolase K451L (from UniProt P0DXB0 1-450) (enzyme)	0.0779 µM	0.028 µM	–	–	–
Recombinant M. hyorhinis enolase K452L (from UniProt P0DXB0 1-450) (enzyme)	0.0705 µM	0.0158 µM	–	–	–
Recombinant M. hyorhinis enolase K451L-K452L (from UniProt P0DXB0 1-450) (enzyme)	0.0752 µM	0.0594 µM	–	–	–
plasminogen (natural protein)	–	–	39.5%	50.1%	30.5%

Reference: PMC8951703
